Source: the supplement of paper PMC11865577

These sequences were tested on TO-3-N3-2 (biotin conjugate) (assay: pull-down binding Z-score (relative to library population); higher = stronger binding). Conditions: RNA library: Library-2.
In short: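 Biotin-conjugated small molecule (100 pmol) on streptavidin beads was incubated with 1 μg of heat-folded Cy5- or Cy3-end-labelled RNA library in phosphate/NaCl/KCl buffer at 25 °C for 60 min. Following three washes, RNA was eluted with hot SDS and hybridised at 55.5 °C for 20 h to a DNA barcode microarray. The binding value is a Z-score computed from the library mean and standard deviation, after subtraction of beads without compound and averaging of barcoded replicate probes with the highest and lowest excluded.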
For “UCUUAAGAGAGGUGAUAAAAGUGUAUAUUACACUAGUAAUCCUACCACAUUCCACCUAGAUGGUGAAGUUAUCACCUUUGACAAUCUUAAGA”, the “pull-down binding Z-score” value was -0.0579.
In the case of “UCUUCAGGUUGGACAGCUGGUGCUGCAGCUUAUUAUGUGGGUUAUCUUCAACCUAGGA [DMSMaPseq_invitro_SARS-CoV-2_Multi_66_ComplexLevel_1]”, the “pull-down binding Z-score” value is reported as -0.178.
For “UCUUGCCGAAUACCAUAAUGAAUCUGGCUUGA [SHAPE_invivo_SARS-CoV-2_Motif_27]”, the “pull-down binding Z-score” value was -0.354.
In the case of “UCUUUAAGGAAGGAAGUUCUGUUGAAUUAAAACACUUCUUCUUUGCUCAGGA [DMSMaPseq_invitro_SARS-CoV-2_Motif_265]”, the “pull-down binding Z-score” value is reported as -0.179.
With “UCUUUAUUUGACAUGAGUAAAUUUCCCCUUAAAUUAAGGGGUACUGCUGUUAUGUCUUUAAAAGA [SHAPE_invitro_SARS-CoV-2_Motif_387]” the “pull-down binding Z-score” value was 0.0957.
“UCUUUCAUGGGA [DMSMaPseq_invitro_SARS-CoV-2_Motif_300]” was tested, and the “pull-down binding Z-score” value was 0.0379.
With “UGAACCACAAAUCA [SHAPE_invitro_SARS-CoV-2_Motif_451]” the “pull-down binding Z-score” value was -0.565.
With “UGAAGUAUUUUGUGAAAAUAGGACCUGAGCGCACCUGUUGUCUAUGUGAUAGACGUGCCACAUGCUUUUCCACUGCUUCA [SHAPE_invitro_SARS-CoV-2_Motif_342]” the “pull-down binding Z-score” value was -0.335.
“UGAAUUAGACUCAUUCA [DMSMaPseq_invitro_SARS-CoV-2_Motif_447]” was tested, and the “pull-down binding Z-score” value was -0.45.
“UGACAUGACUCUUGAGGAAAUGUCA [IAV_invivo_NS1_NEP_8_Motif_7+IAV_invivo_NS1_NEP_8_Motif_7]” was tested, and the “pull-down binding Z-score” value was -0.773.
With UGACAUUACACCAUGUUCUUUUGGUGGUGUCA the “pull-down binding Z-score” value was -0.423.
In the case of “UGACCAGUCUUCUUACAUCGUUGAUAGUGUUACAGUGAAGAAUGGUUCCAUCCAUCUUUACUUUGAUAAAGCUGGUCA”, the “pull-down binding Z-score” value is reported as -0.33.
“UGACGAUGCUGUUGUGUGUUUCAAUAGCACUUAUGCAUCUCA [SHAPE_invitro_SARS-CoV-2_Motif_289]” was tested, and the “pull-down binding Z-score” value was -0.0833.
For “UGAGUACUGUAGGCACGGCACUUGUGAAAGAUCAGAAGCUGGUGUUUGUGUAUCUACUAGUGGUAGAUGGGUACUUA [DMSMaPseq_invitro_SARS-CoV-2_Multi_29_ComplexLevel_1]”, the “pull-down binding Z-score” value was -0.0976.
In the case of “UGAGUGUGACAUACCCAUUGGUGCAGGUAUAUGCGCUAGUUAUCAGACUCA”, the “pull-down binding Z-score” value is reported as 0.422.
“UGAUAAAUUCA [SHAPE_invivo_SARS-CoV-2_Motif_325]” was tested, and the “pull-down binding Z-score” value was -0.375.
“UGAUAGUCAACAAACUGUUGGUCAACAAGACGGCAGUGAGGACAAUCA” was tested, and the “pull-down binding Z-score” value was 0.241.
In the case of “UGAUGCAGCCAUGCAACGUAAGUUGGAAAAGAUGGCUGAUCA”, the “pull-down binding Z-score” value is reported as -0.36.
In the case of “UGAUGCGUAUUAUGACAUGGUUGGAUAUGGUUGAUACUAGUUUGUCUGGUUUUAAGCUAAAAGACUGUGUUAUGUAUGCAUCA”, the “pull-down binding Z-score” value is reported as -0.285.
With “UGAUGGUGUUCCAUUUGUAGUUUCAACUGGAUACCACUUCA [DMSMaPseq_invitro_SARS-CoV-2_Motif_261]” the “pull-down binding Z-score” value was -0.236.
UGAUGUCACAGAUGUGACUCA was tested, and the “pull-down binding Z-score” value was -0.677.
UGAUGUUUGUCA was tested, and the “pull-down binding Z-score” value was -0.778.
For “UGAUUUUUGUGGAAAGGGCUAUCAUCUUAUGUCCUUCCCUCAGUCA [SHAPE_invivo_SARS-CoV-2_Motif_462]”, the “pull-down binding Z-score” value was -0.0472.
“UGCAACGAUACCGAUACAAGCCUCACUCCCUUUCGGAUGGCUUAUUGUUGGCGUUGCA” was tested, and the “pull-down binding Z-score” value was -0.134.
In the case of “UGCAAGAGAUGGUUGUGUUCCCUUGAACAUAAUACCUCUUACA [DMSMaPseq_invitro_SARS-CoV-2_Motif_219]”, the “pull-down binding Z-score” value is reported as -0.0456.
With UGCACUUGACCCUCUCUCAGAAACAAAGUGUA the “pull-down binding Z-score” value was -0.162.
In the case of UGCAGAUUCAACUUUGAUUGGUGAUUGUGCA, the “pull-down binding Z-score” value is reported as 0.191.
UGCAGAUUUGGAUGAUUUCUCCAAACAAUUGCA was tested, and the “pull-down binding Z-score” value was -0.117.
With “UGCAGCAGAAACGCUCA [SHAPE_invitro_SARS-CoV-2_Motif_303]” the “pull-down binding Z-score” value was 0.0228.
In the case of “UGCAUUUCUUACCUAGAGUUUUUAGUGCA [DMSMaPseq_invitro_SARS-CoV-2_Motif_163]”, the “pull-down binding Z-score” value is reported as -0.416.
For “UGCCAUUUGUCAUGAUGGAAAAGCACACUUUCCUCGUGAAGGUGUCUUUGUUUCAAAUGGCA [SHAPE_invivo_SARS-CoV-2_Motif_465]”, the “pull-down binding Z-score” value was -0.218.
With “UGCCGACUACUAUAGCAAAGAAUACUGUUAAGAGUGUCGGUA” the “pull-down binding Z-score” value was -0.206.
“UGCCUUCAAACUCAACAUUAAAUUGUUGGGUGUUGGUGGCA” was tested, and the “pull-down binding Z-score” value was -0.352.
“UGCGAGAAAUGCUUGCA [SHAPE_invitro_SARS-CoV-2_Motif_85]” was tested, and the “pull-down binding Z-score” value was -0.0133.
UGCUAACUAAGGGCA was tested, and the “pull-down binding Z-score” value was -0.0827.
For “UGCUCAAGAAGCUUAUGAGCA [SHAPE_invivo_SARS-CoV-2_Motif_229]”, the “pull-down binding Z-score” value was 0.0729.
UGCUGAGGCUUCUAAGAAGCCUCGGCA was tested, and the “pull-down binding Z-score” value was -0.197.
“UGCUGUUGUUAAAAUUUAUUGUCCAGCA [SHAPE_invitro_SARS-CoV-2_Motif_28]” was tested, and the “pull-down binding Z-score” value was -0.134.
In the case of UGCUUUCGUGGUA, the “pull-down binding Z-score” value is reported as -0.292.
“UGCUUUGGUGUAAAGAUGGCCAUGUAGAAACAUUUUACCCAAAAUUACAAUCUAGUCAAGCGUGGCAACCGGGUGUUGCUAUGCCUAAUCUUUACAAAAUGCA” was tested, and the “pull-down binding Z-score” value was -0.00692.
In the case of UGGAAUUGCAAUGUCGAUAGAUAUCCUGCUAAUUCCA, the “pull-down binding Z-score” value is reported as 0.0197.
With “UGGAGGAAUACAAAUCCA [SHAPE_invitro_SARS-CoV-2_Motif_386]” the “pull-down binding Z-score” value was 0.00658.
With “UGGAUGUAAUUAUCUUGGCAAACCACGCGAACAAAUAGAUGGUUAUGUCAUGCAUGCA” the “pull-down binding Z-score” value was -0.0277.
“UGGCAUGGAAGUCA [DMSMaPseq_invitro_SARS-CoV-2_Motif_525]” was tested, and the “pull-down binding Z-score” value was -0.289.
For “UGGCAUUAAUGCUUCAGUUGUAAACAUUCAAAAAGAAAUUGACCGCCUCAAUGAGGUUGCCA”, the “pull-down binding Z-score” value was -0.207.
With UGGCCAUGGUACAUUUGGCUA the “pull-down binding Z-score” value was -0.0742.
With “UGGCCCCGAUUUCAGCUAUGGUUA [SHAPE_invitro_SARS-CoV-2_Motif_146]” the “pull-down binding Z-score” value was -0.0487.
With “UGGCCGCAAAUUGCACAAUUUGCCCCCA [SHAPE_invitro_SARS-CoV-2_Motif_532]” the “pull-down binding Z-score” value was -0.435.
In the case of “UGGGAUAUUGCCCG [IAV_invivo_PB2_1_Motif_20+IAV_invivo_PB2_1_Motif_20]”, the “pull-down binding Z-score” value is reported as -0.289.
With “UGGGAUUAUCCUA [DMSMaPseq_invitro_SARS-CoV-2_Motif_276]” the “pull-down binding Z-score” value was -0.249.
In the case of “UGGGCACACUUUCUUAUGAACAAUUUAAGAAAGGUGUUCA [SHAPE_invivo_SARS-CoV-2_Motif_116]”, the “pull-down binding Z-score” value is reported as -0.384.
“UGGGGACCAGGAACUAAUCAGACAAGGAACUGAUUACAAACAUUGGCCGCAAAUUGCACAAUUUGCCCCCA” was tested, and the “pull-down binding Z-score” value was 0.0998.
In the case of “UGGGGAGUUGAACCUA [IAV_invivo_PB2_1_Motif_19+IAV_invivo_PB2_1_Motif_19]”, the “pull-down binding Z-score” value is reported as 0.0385.
In the case of “UGGGGAUCACAACUCA [IAV_invivo_PB1_2_Motif_11+IAV_invivo_PB1_2_Motif_11]”, the “pull-down binding Z-score” value is reported as -0.0635.
UGGGGCGCGAUCAAAACAACGUCGGCCCCA was tested, and the “pull-down binding Z-score” value was 0.157.
With “UGGGGUUGGGGUUGGGGUUGGGGUUGGGGUUGGGGU [G4_r(UGGGGU)6]” the “pull-down binding Z-score” value was 8.72.
“UGGGGUUGGGGUUGGGGUUGGGGUUGGGGUUGGGGUUGGGGUUGGGGU [G4_r(UGGGGU)8]” was tested, and the “pull-down binding Z-score” value was 8.63.
In the case of UGGGUAGAAUUCGAUCUGUCUAUCCA, the “pull-down binding Z-score” value is reported as -0.21.
For “UGGGUUACAUCCUACACAGGCACCUACACACCUCAGUGUUGACACUAAAUUCAAAACUGAAGGUUUAUGUGUUGACAUACCUGGCAUACCUAAGGACAUGACCUA”, the “pull-down binding Z-score” value was -0.293.
With UGGGUUAUCUUCAACCUA the “pull-down binding Z-score” value was -0.424.
“UGGGUUGGGUUGGGUUGGGUUGGGUUGGGU [G4_r(UGGGU)6]” was tested, and the “pull-down binding Z-score” value was 10.2.
With “UGGGUUGGGUUGGGUUGGGUUGGGUUGGGUUGGGUUGGGU [G4_r(UGGGU)8]” the “pull-down binding Z-score” value was 10.4.
For “UGGUAAUGCUGCUAUCAGCGAUUAUGACUACUAUCGUUAUAAUCUACCA”, the “pull-down binding Z-score” value was -0.385.
For “UGGUACUAUCUAUACAGAACUGGAACCA [SHAPE_invitro_SARS-CoV-2_Motif_233]”, the “pull-down binding Z-score” value was -0.345.
“UGGUACUGAAGAUGAUUACCA [SHAPE_invitro_SARS-CoV-2_Motif_57]” was tested, and the “pull-down binding Z-score” value was 0.306.
UGGUAUUCUUGCUA was tested, and the “pull-down binding Z-score” value was -0.339.
In the case of “UGGUGUUAGAAGGUCCUUUUAUGUCUAUGCUAAUGGAGGUAAAGGCUUUUGCAAACUA [SHAPE_invitro_SARS-CoV-2_Motif_149]”, the “pull-down binding Z-score” value is reported as -0.276.
For UGGUUGGUUGGUUGGUUGGUUGGU [G4_r(UGGU)6], the “pull-down binding Z-score” value was 7.83.
